The values below come from patent US20230213527A1, “COMPOSITIONS AND METHODS FOR POLYPEPTIDE ANALYSIS” (Quantum-Si Incorporated, priority 2021, published 2023).

Test [1] concerns PS610. Put plainly: Dynamic single-molecule sequencing, recognition by PS610. In kind it is binding, A. tumefaciens. The conditions noted are these: for Pulse Width: recognizer PS610, recognition of the N-terminal amino acid; for Median pulse duration of tyrosine recognition by PS610: P38MAPKa-derived peptides, PS610, PS961, PS621. The procedure:
The semiconductor chip was placed in the sequencing device and a chip check was performed to test electronic circuit function and to optimize laser coupling alignment. The chip was then removed from the device socket and the chip was washed twice with 50 μL of 70% isopropanol, followed by four washes with 30 μL of wash buffer (50 mM MOPS pH 8.0, 60 mM potassium acetate, 50 mM glucose, 20 mM magnesium acetate, and surfactant mix) through a flow cell attached to the chip. A second chip check was then performed. […] The chip was then washed six times with wash buffer, followed by addition of an imaging solution (wash buffer with 5 mM Trolox and an oxygen scavenging system). The laser was unblocked and the occupancy percentage (target 10-30%, Poisson distributed) was recorded by acquiring a photobleaching signal from a fluorophore attached to the peptide complex during 5 min of laser illumination. […] The laser was then blocked briefly and aminopeptidases were added to the sequencing reaction via the flow cell and mixed thoroughly (final concentration 2-8 μM PhTET2 and/or 20-80 μM PhTET3, as indicated according to the experiment). The laser was then unblocked, and data was recorded for 10 hours. For all runs, 30 μL of mineral oil was added to fluid reservoirs at each port of the flow cell to prevent evaporation during the run.
(§1) The measured signal on-chip comprises various noise components, the most dominant one being due to fluorescent emissions from diffusing recognizers in the reaction chamber. The pulse caller algorithm for a given reaction chamber starts by estimating the statistical properties of this background noise component. Once an estimate within certain error bounds has been established, the algorithm works in an online fashion observing new frames of data as they are generated. At each point in time, the algorithm maintains state indicating whether the signal is due to the background component only or a pulse from a recognizer-NAA interaction is being observed. The state transition from background to pulse is triggered using an edge detection test where the shift in signal is expected to be significant with respect to the background component's statistical distribution. The state transition from pulse to background is triggered when a small window of the most recent frames of the signal appears to conform to the background component's distribution again. The algorithm maintains an updated model of the background component as new background frames are observed. This provides robustness against drift in the signal intensity together with a feedback control loop that maintains a stable optical coupling of the laser into the chip based on any such detected drift. As detected pulses can be due to true recognizer-to-dipeptide interaction events as well as other occasional transient noise spikes, a downstream filter layer is employed to test the significance of pulse events based on their duration, intensity, and noise patterns within the context of the full timeline of the run and the entire dataset of reaction chambers.
Initial regions are determined by performing a sliding window calculation of pulse rate along the time dimension of a series of pulses. Regions with a mean pulse rate >1 pulse/min are then subdivided according to a greedy bisection approach. Here, the pulses on the left and right of each potential split are assessed for statistically significant deviation in any of four separate pulse properties—intensity, bin ratio, pulse duration, and interpulse duration—using a Mann-Whitney U Test. To define RSs, the split point with the lowest p-value for any of the four properties is used to sub-divide the region and the process continues until no regions remain with a candidate split point with p-value <10^−5 in any comparison. In this manner, transitions from one RS to the next in a region of continuous pulsing are determined a priori on the basis of changes in fluorescence properties of pulsing kinetics.

For test [2], the target named is T1, PS621 (Kluyveromyces lactis, UniProt O60014, E174T/N105S/N176F/R116K/S153T/V146T).
T1 construct: PS621; […]
T1 sequence (O60014 other isoform, or with tags, fused parts or gaps N105S/R116K/V146T/S153T/E174T/N176F): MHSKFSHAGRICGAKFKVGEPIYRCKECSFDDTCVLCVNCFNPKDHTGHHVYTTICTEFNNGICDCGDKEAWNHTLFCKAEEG
Put plainly: Dynamic single-molecule sequencing, recognition by PS621. In kind it is binding. The conditions noted are these: for PW of R-X / RS R-X: unmodified arginine peptide; for PW of R-X / PW of ADMA-X / RS ADMA-X / RS R-X: average of 10 sequencing reactions; for PW of ADMA-X / RS ADMA-X: ADMA peptide; for RS ADMA-X / RS R-X: RS duration; for Median interpulse duration (IPD) of arginine recognition by PS621 / Binding with the recognizer PS621: P38MAPKa-derived peptides; for Binding with the recognizer PS621: residue at position 2. An excerpt:
PTM detection involved isolating peptides and subjecting them to a real-time single-molecule protein sequencing reaction. Proteins were first digested into peptide fragments and conjugated C-terminally to macromolecular linkers. The peptide complexes were immobilized at the bottom of nanoscale wells on a semiconductor chip, resulting in single peptide molecules with exposed N-termini ready for sequencing. During the sequencing reaction, the surface-immobilized peptides were exposed to a solution containing dye-labeled NAA recognizers that bound on and off to their cognate NAAs with characteristic kinetic properties. Aminopeptidases in solution sequentially removed individual NAAs to expose subsequent amino acids for recognition. Fluorescence lifetime, intensity, and kinetic data were collected in real time and analyzed to determine amino acid sequence and PTM content.
The trace-level output included distinct pulsing regions called recognition segments (RSs); each RS corresponded to a period of time between aminopeptidase cleavage events during which an NAA recognizer bound on and off to its exposed target NAA. Chemical modifications to a target NAA or to a nearby downstream amino acid can modulate recognizer affinity, resulting in a characteristic change in the average pulse duration (PD) during an RS relative to an unmodified peptide. These modifications can also influence the rate of aminopeptidase cleavage of an NAA, resulting in a characteristic change in average duration of the corresponding RS.
Synthetic peptides corresponding to residues 69 to 76 of P38MAPKa were generated in three versions containing either arginine, ADMA, or SDMA at position 2: YRELRLLK (SEQ ID NO: 834), YRADMAELRLLK (SEQ ID NO: 835), and YRSDMAELRLLK (SEQ ID NO: 836). Each peptide was sequenced using three recognizers—PS610 (F, Y, W), PS961 (L, I, V), and PS621 (R)—and data were analyzed to identify RSs, determine the mean PD of each RS, and characterize the kinetic signature of each peptide.
In this example, sequencing reactions were performed using PS621 (R), PS610 (FYW), and PS961 (LIV) recognizers for 9 pairs of peptides. Each pair comprised one peptide comprising an unmodified arginine residue followed by a non-arginine amino acid (referred to as an R-X peptide) and one peptide having an identical sequence except that the unmodified arginine was modified to be ADMA (referred to as an ADMA-X peptide).

Test [3] has as its system PS961. Put plainly: Dynamic single-molecule sequencing, recognition by PS961. In kind it is binding, Planctomycetes. The conditions noted are these: for Median PD, recognition of N-terminal leucine by PS961: peptides RLAFAYPDDD, RLIFAYPDDD, RLVFAYPDDD; for RS mean PD, N-terminal leucine by PS961 / RS mean duration for leucine recognition: leucine followed by threonine or phosphothreonine. The protocol: The semiconductor chip was placed in the sequencing device and a chip check was performed to test electronic circuit function and to optimize laser coupling alignment. The chip was then removed from the device socket and the chip was washed twice with 50 μL of 70% isopropanol, followed by four washes with 30 μL of wash buffer (50 mM MOPS pH 8.0, 60 mM potassium acetate, 50 mM glucose, 20 mM magnesium acetate, and surfactant mix) through a flow cell attached to the chip. A second chip check was then performed. The laser was then blocked via an integrated software-controlled shutter, peptide complex was added to a final concentration of 1-10 nM and mixed thoroughly, and the chip was incubated for 15 min. The chip was then washed six times with wash buffer, followed by addition of an imaging solution (wash buffer with 5 mM Trolox and an oxygen scavenging system). The laser was unblocked and the occupancy percentage (target 10-30%, Poisson distributed) was recorded by acquiring a photobleaching signal from a fluorophore attached to the peptide complex during 5 min of laser illumination. For NAA recognition-only assays, after peptide loading, labeled recognizer was added to a final concentration of 50 nM PS610, 100 nM PS691, or 250 nM PS961 (as indicated according to the experiment), and data was recorded for 10 hours. For dynamic sequencing assays, after peptide loading, a mixture of labeled recognizers was added to obtain final concentrations of 50 nM PS610, 100 nM PS691, and 250 nM PS961. Data was recorded for 15 min. The laser was then blocked briefly and aminopeptidases were added to the sequencing reaction via the flow cell and mixed thoroughly (final concentration 2-8 μM PhTET2 and/or 20-80 μM PhTET3, as indicated according to the experiment). The laser was then unblocked, and data was recorded for 10 hours. For all runs, 30 μL of mineral oil was added to fluid reservoirs at each port of the flow cell to prevent evaporation during the run.
as §1
Initial regions are determined by performing a sliding window calculation of pulse rate along the time dimension of a series of pulses. Regions with a mean pulse rate >1 pulse/min are then subdivided according to a greedy bisection approach.

Square brackets hold non-standard residues; d marks the D form. Ends that are not written are not given here. Cit = NC(=O)NCCC[C@H](N)C(=O)O

Sequence of PS961 (as listed by the source): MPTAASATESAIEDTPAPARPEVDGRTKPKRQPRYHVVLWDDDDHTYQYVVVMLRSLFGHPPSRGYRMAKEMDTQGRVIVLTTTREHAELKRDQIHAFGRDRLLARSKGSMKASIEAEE

On to “FCitLAFAYPDDDK (F[Cit]LAFAYPDDDK-NH2; also: C-terminal azidolysine (general statement for all synthetic peptides)) [QP1029]”, for which, in test [1], the “Pulse Width” value was 5.24 s.

Turning to “FRLAFAYPDDDK (FRLAFAYPDDDK-NH2; not fully specified (residue 2); also: all synthetic peptides contained C-terminal Fmoc-azidolysine) [QP1028]”, the “Pulse Width” value in test [1] worked out at 4.94 s.

For the substance LRAAFAYPDDDK [QP747], the “PW of R-X” value in test [2] is reported as less than 0.12 s.

On to LRADMAAAFAYPDDDK [QP743], for which the “PW of ADMA-X” value in test [2] was 0.19 s.

LRADMAEAFAYPDDDK [QP939]: the “PW of ADMA-X” value in test [2] stood at 0.34 s.

With LRADMAIAFAYPDDDK [QP745], in test [2], the “PW of ADMA-X” value is recorded as 0.32 s and the “RS ADMA-X” value is 46.9 min.

LRADMALAFAYPDDDK [QP729]: in test [2], the “PW of ADMA-X” value is 0.48 s and the “RS ADMA-X” value is given as 48.5 min.

On to LRADMAQAFAYPDDDK [QP944], for which the “PW of ADMA-X” value in test [2] is reported as 0.21 s.

On to LRADMASAFAYPDDDK [QP744], for which, in test [2], the “PW of ADMA-X” value is 0.55 s.

With LRADMATAFAYPDDDK [QP945], in test [2], the “PW of ADMA-X” value is listed as less than 0.06 s.

As to LRADMAVAFAYPDDDK [QP946], in test [2], the “PW of ADMA-X” value turned out to be 0.32 s and the “RS ADMA-X” value was determined as 33.8 min.

On to LRADMAYAFAYPDDDK [QP742], for which, in test [2], the “PW of ADMA-X” value amounted to 0.25 s and the “RS ADMA-X” value came out at 39.2 min.

For LREAFAYPDDDK [QP938], the “PW of R-X” value in test [2] was less than 0.06 s.

Regarding LRIAFAYPDDDK [QP749], in test [2], the “RS R-X” value amounted to 15.4 min and the “PW of R-X” value worked out at 0.28 s.

On to LRQAFAYPDDDK [QP941], for which the “PW of R-X” value in test [2] is less than 0.06 s.

In the case of LRSAFAYPDDDK [QP748], the “PW of R-X” value in test [2] is given as less than 0.12 s.

Consider LRTAFAYPDDDK [QP942], for which the “PW of R-X” value in test [2] was less than 0.06 s.

In the case of LRVAFAYPDDDK [QP943], in test [2], the “RS R-X” value is listed as 25.5 min and the “PW of R-X” value worked out at 0.41 s.

LRYAFAYPDDDK [QP746]: in test [2], the “RS R-X” value was 9.6 min and the “PW of R-X” value is given as 0.18 s.

For RLAFAYPDDD, the “Median PD, recognition of N-terminal leucine by PS961” value (shortened to “Median PD, recognition”) in test [3] is 1.29 s.

As for RLIFAYPDDD, the “Median PD, recognition” value in test [3] worked out at 2.22 s.

Consider “RLMFAYPDDD (not fully specified (residue 3, C-terminus); also: all synthetic peptides contained C-terminal Fmoc-azidolysine)”, for which the “Median PD of leucine recognition, first population of traces” value in test [3] (leucine followed by methionine (LM)) came out at 0.86 s. In test [3] (methionine not recognized, oxidized (LMo)), the “Median PD of leucine recognition, second population of traces” value came to 0.35 s.

“RLTFIAYPDDD (not fully specified (residue 3, C-terminus); also: all synthetic peptides contained C-terminal Fmoc-azidolysine)”: in test [3], the “RS mean PD, N-terminal leucine by PS961” value stood at 1.2 s and the “RS mean duration for leucine recognition” value was found to be 8.1 min.

Take RLVFAYPDDD: in test [3], the “Median PD, recognition” value was found to be 4.21 s.

As for RLpTFIAYPDDD, in test [3], the “RS mean PD, N-terminal leucine by PS961” value is recorded as 0.3 s and the “RS mean duration for leucine recognition” value was 130 min.

Regarding “YCitIAFAYPDDDK (Y[Cit]IAFAYPDDDK-NH2; also: C-terminal azidolysine (general statement for all synthetic peptides)) [QP1031]”, the “Pulse Width” value in test [1] is 1.12 s.

For “YRADMAE (YRELRLLK) [YRADMAELRLLK, P38MAPKa peptide with asymmetric dimethylarginine at position 2]”, in test [2], the “Median interpulse duration (IPD) of arginine recognition by PS621” value was found to be 5.82 s and the “Binding with the recognizer PS621” value is listed as “binding”. In test [1], the “Median pulse duration of tyrosine recognition by PS610” value (from here on “Median pulse duration”) is on record as 1.47 s.

Take YRELRLLK: in test [2], the “Median interpulse duration (IPD) of arginine recognition by PS621” value was 10.05 s and the “Binding with the recognizer PS621” value is recorded as “binding”. Also, in test [1], the “Median pulse duration” value amounted to 0.69 s.

As to “YRIAFAYPDDDK (YRIAFAYPDDDK-NH2; not fully specified (residue 2); also: all synthetic peptides contained C-terminal Fmoc-azidolysine) [QP1030]”, the “Pulse Width” value in test [1] is given as 0.77 s.

On to “YRSDMAELRLLK (YRELRLLK) [P38MAPKa peptide with symmetric dimethylarginine at position 2]”, for which, in test [2], the “Binding with the recognizer PS621” value is listed as “no binding”. Moreover, in test [1], the “Median pulse duration” value is 1.48 s.
